Experimental findings from patent US20250170227A1 are described below.

The target of test [1] is C1s. The experiment in a line: C1s activity inhibition.
For test [2], the target named is C1s. The experiment in a line: C1s activity inhibition; 10x periodate.
Test [3] concerns the target C1s. As to the kind of experiment: C1s activity inhibition; 20x periodate.
Test [4] addresses C1s. As to the kind of experiment: C1s activity inhibition; 40x periodate.

Cinryze showed an IC50 in the test with C1s [1] of 1.49 nM. In other words, the single-digit nanomolar range.

For the substance Cinryze-5k-10x, the IC50 with C1s [2] was 1.45 nM.

Take Cinryze-5k-20x: the IC50 in the test with C1s [3] is 2.26 nM.

In the test with C1s [4], Cinryze-PEG5k-40x gave an IC50 of 2.7 nM.

Usually IC50 stands for the point on the concentration scale where inhibition reaches its midpoint. A low value points to greater potency in that assay.
